Experimental data: publication PMC4718548 (Structure (London, England : 1993), 2015)

Experiments:
[1] = target: Mycobacterium tuberculosis ribosome large subunit 50S (Mycobacterium tuberculosis (endogenous in Mtb MC2 7000)) (UniProt A5U0A0); assay: co-sedimentation
[2] = target: Mycobacterium tuberculosis ribosome large subunit 50S (Mycobacterium tuberculosis (endogenous in Mtb MC2 7000)) (UniProt A5U0A0)
[3] = target: Mycobacterium tuberculosis ribosome large subunit 50S (Mycobacterium tuberculosis (endogenous in Mtb MC2 7000)) (UniProt A5U0A0); assay: cryo-EM structure
[4] = target: the molecule itself

Chain of Mycobacterium tuberculosis ribosome large subunit 50S (Mycobacterium tuberculosis (endogenous in Mtb MC2 7000)) (A5U0A0 whole entry, looked up): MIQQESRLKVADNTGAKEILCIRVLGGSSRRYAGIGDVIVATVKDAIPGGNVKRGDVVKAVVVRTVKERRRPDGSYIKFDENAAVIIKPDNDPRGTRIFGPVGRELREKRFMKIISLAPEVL

Mycobacterium tuberculosis ribosome small subunit 30S (complex)
percent of 50S in the 70S form, without RsfS [1]: > 70%

B1: Escherichia coli RsfS, wild type, C-terminal His6 (natural protein)
chain: MQGKALQDFVIDKIDDLKGQDIIALDVQGKSSITDCMIICTGTSSRHVMSIADHVVQESRAAGLLPLGVEGENSADWIVVDLGDVIVHVMQEESRRLYELEKLWS
inhibition in the Mtb ribosome cell-free translation assay [2]: 80%

B2: Mycobacterium tuberculosis ribosomal silencing factor RsfS, wild type, C-terminal His6 (natural protein)
chain: MTANREAIDMARVAAGAAAAKLADDVVVIDVSGQLVITDCFVIASGSNERQVNAIVDEVEEKMRQAGYRPARREGAREGRWTLLDYRDIVVHIQHQDDRNFYALDRLWGDCPVVPVDLSANSAGAQ
stoichiometry N [3]: 1

B3: Mycobacterium tuberculosis RsfS E74A, C-terminal His6 (natural protein)
chain: MTANREAIDMARVAAGAAAAKLADDVVVIDVSGQLVITDCFVIASGSNERQVNAIVDEVEEKMRQAGYRPARRAGAREGRWTLLDYRDIVVHIQHQDDRNFYALDRLWGDCPVVPVDLSANSAGAQ
stoichiometry N [4]: 2
